In article PMC3169180:

T1: mature form of full-length OmpA (OmpA325) (E. coli K12 MG1655), P0A910
T1 chain: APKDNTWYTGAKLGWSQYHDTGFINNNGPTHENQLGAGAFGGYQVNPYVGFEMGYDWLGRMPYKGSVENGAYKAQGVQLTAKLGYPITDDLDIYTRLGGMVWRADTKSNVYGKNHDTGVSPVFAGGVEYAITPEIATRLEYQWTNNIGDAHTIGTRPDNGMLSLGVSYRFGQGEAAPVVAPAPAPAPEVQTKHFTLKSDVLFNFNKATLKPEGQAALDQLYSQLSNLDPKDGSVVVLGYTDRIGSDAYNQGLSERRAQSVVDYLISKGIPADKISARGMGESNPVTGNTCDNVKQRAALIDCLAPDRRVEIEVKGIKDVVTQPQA


Experiments:
[1] = molecular target: N-terminal barrel domain of OmpA (OmpA171, residues 1–171) (E. coli K12 MG1655); assay: circular dichroism kinetics
[2] = molecular target: T1, mature form of full-length OmpA …; assay: AUC; details: remark: other sources report otherwise

Sequence of N-terminal barrel domain of OmpA (OmpA171, residues 1–171) (domain or fragment) (P0A910 1-171): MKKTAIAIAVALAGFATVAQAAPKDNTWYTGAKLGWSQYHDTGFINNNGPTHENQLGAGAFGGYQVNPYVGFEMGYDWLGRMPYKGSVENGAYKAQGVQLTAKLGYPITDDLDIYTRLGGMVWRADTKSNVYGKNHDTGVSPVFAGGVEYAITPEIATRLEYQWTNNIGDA

Row | critical nucleus size n* (nucleated growth polymerization model) [1] | order of the self-association reaction (initial rates) [1] | percent monomer (3 μM OmpA325, 450 mM urea, 30 minutes) [2] | Molecule
1 | 2.6 molecules | 3.2 | – | N-terminal barrel domain of OmpA (OmpA171, residues 1–171) (domain or fragment)
2 | – | – | 75% | mature form of full-length OmpA (OmpA325), P0A910 22-346 (natural protein) APKDNTWYTGAKLGWSQYHDTGFINNNGPTHENQLGAGAFGGYQVNPYVGFEMGYDWLGRMPYKGSVENGAYKAQGVQLTAKLGYPITDDLDIYTRLGGMVWRADTKSNVYGKNHDTGVSPVFAGGVEYAITPEIATRLEYQWTNNIGDAHTIGTRPDNGMLSLGVSYRFGQGEAAPVVAPAPAPAPEVQTKHFTLKSDVLFNFNKATLKPEGQAALDQLYSQLSNLDPKDGSVVVLGYTDRIGSDAYNQGLSERRAQSVVDYLISKGIPADKISARGMGESNPVTGNTCDNVKQRAALIDCLAPDRRVEIEVKGIKDVVTQPQA
